Assay: soluble on expression in E. coli; label from the status in PepcDB or PDB records

Sequence | soluble on expression in E. coli
VGAIMLDGKATRDEIFGDLKQRVAALDAAGRTPGLGTILVGDDPGSQAYVRGKHADCAKVGITSIRRDLPADISTATLNETIDELNANPDCTGYIVQLPLPKHLDENAALERVDPAKDADGLHPTNLGRLVLGTPAPLPCTPRGIVHLLRRYDISIAGAHVVVIGRGVTVGRPLGLLLTRRSENATVTLCHTGTRDLPALTRQADIVVAAVGVAHLLTADMVRPGAAVIDVGVSRTDDGLVGDVHPDVWELAGHVSPNPGGVGPLTRAFLLTNVVELAERR | soluble
MITVVIASRLREDRLDYLTAMHASLTRQSVPWEAVIALDGASPDRLPRQLAQDPRVDTLVLPRPVGAACARNLALTQVRTRYVNWADDDDEFTDDAMSVRLETLESTGVGWCAGWSEDQFRDGSTRLWRCPTPPGRHEAGDVWTFWKSPADTIPIGPTTILARTDLVRAAPMGGLVQGEDYCAALGVTALAPGILLPLPVYRYRKWGGQMTAQDGYDQLETAAREHAWAYGRSLRAVLRGGEDLVHVLEHHHHHH | not soluble
MTSSDLPVMLFAAGFGTRMGDLTRTRPKPLIEVAGRPLVDHTLDLARAVSPPRIVANLHYLAPLLAAHLAPQGVLLSHEQPDILDTGGGLRQALPLLAAETVFTANSDAIWSGPNPFALLAEAWEPARMDALLMCVPVGQAIGHAGHGDFSRDAQGRIERGPGLIYGGVQIVKTGGLGDFDMPAFSLNLLWNRIGAAGRLFALEYPGRWCDVGHPGGIALAEEMLRDVLEHHHHHH | soluble
MSFMDKVKDTANSAYESVENTAVGAKDGVVGAFNTVGEKIGGAYDSTKQYASDKVSAAGDYASEAGKKVGDAEDSMIQGAYDAKDSAKESASNAGNKISNAFTSLKDSITGDNAHKTGEALNDNYESVKESASEAADRLKEPAQNTADNAKDLANQTGEEMSDAFESVKQLTSDTAENAKENAHDAADTAKSYKDKAGEKASGILDSFKAHASDAKDSVENKASDAYNSAKDKAGDAWDSTKDAAGDAKDKTKSFTEKVGDKISGAYDSVKEKASDVADSFKAHSTDSKDNVENKAADAYNTAKDKASDAWDKTKDKAGEAKDKMGDAWDTTKDKAGDAWDTTKDKAGDGKGKAGDAWDTTKDKASDAWDTTKDKAGEAKDKMGEAWDHTKDKAGEAKDKASDAADDAQGKSKSMTEKIGDSISGAWESTKDTAVSAKDKTAEAAGKVGDSISGAYDTVKEKASDIADSFKAHSTDSKDNVENKAADAYNSAKDKASDAWDKTKDKAGDAKDKAADAWDTTKDKAGDAWDSTKDHAADAKDKASDAAGDAKDKSKSLTEKAGDAISGAYDSVKEKASDIADSFKAHSTNSKDNVENKASDAYNSAKDKASDAWDKTKDKAGEAKDKAGDAWDNTKDKAGNAWDSTKDKASDAWDTTKDKASDAKESAGDAADSAKDKSKSITETIGDKISGAYDSVKEKASDVADSFKAHSSDAQDTVEVSHHKYFNVFSSFE | soluble
MGSDKIHHHHHHLNTLKTNAMEIFKQAVSTLNNPEVQGWKQQGGKVVGYFYSYIPEELITAAGLLPYKIRGIGSPGAAMADKYFTHNVCSLVRDTFELVLKGECDFLDGVINFNGCDHIRRISDNWQSLENNPCFHFLVLPKKVGKEQTERYREELVSLKASIEKRFNLVISEDKLKEAIRLHNKKRQLQRRLYELKKRENPPLSGAETLTVMIAGTVMPVARYNRLLAELIDELSISEGKKPNARLMLIGGELDNPELLKILESQGGMVVSDTMALGAREIACDVSETEDGLTALARYHMEDKPPCPRLYGTFQERFDFIRKTAREYQVDGVISLRFLLCDIWGFEQNDIAEILRTEKLPYLKLETEYALTNAGQLKTRVQAFVETLGEV | not soluble
MLYDVVGVRFKKAGKVYYFDPNQFDISENEFVIVETVRGIEYGKVVITKKQVDENDVVLPLKKVIRIANENDRTIVEENKHAAKEAYQVCQQKVVEHNLDMKLVDVEYTFDRNKIIFYFTADGRIDFRELVKDLAAIFRTRIELRQIGVRDEAKMLGGIGPCGRMLCCSTFLGDFEPVSIKMAKDQNLSLNPAKISGLCGRLMCCLKYENDEYEAAKEQLPDLDQRIQTPHGTGRVIGLNILERLIQVELVDKERIVEYTLDELVNKGLEHHHHHH | soluble
ESIYIQSPYFIPDQAFLDSIKIAALGGVDVNIMVPNKRDHPFVYWATLKNVASLLEAGVNVYHYDNGFLHSKTLVIDDEVASVGTANMDNRSFTLNFEVNAFIYDEGVARSLKQAFINDMKLSNKLTSEEYAKR | not soluble
MLIEERLAKIQKIVNEQKSISMEALAEQVSVSKDTIRRDLIRLEKEGHLKRTHGGAISVQSEATIYDYAQRIVKHPEKKQAIAQKVWANIPKQASIFFDSSTTVEAAIRAMENSPIHAITNSLSHALLLAQMDQTKITVLPGQLHKQQLFLFGAETVAKVGEFAPDYTLLGVFALSEQGLFIHTEEEGQVKRRMIQQGKQVIALADQTKLNKTGLFKICELTEIDCLVTDTRPDEKFCEQLAQAGVTLIVADELEHHHHHH | soluble
MIKLVRIDYRLLHGQVVFAWTRALDIDHIIVANANAAGDAFVSMSLSLAKPAGVSLDIITVEQAAEKLASGKLDHKKVMVVLGNTAETLAFVEKVPGISVINYGGIAQKEGAQQFGKAIYLTEQEIADSQALKAKGIRLEMRQVPAHSAELLNDKL | not soluble
MSLNYIEDIKNYIPFNEQEERDKELFLRCLNDFHDILTRDNTIAHLTSSAFAVNKERNKFLMIHHNIYNSWAWTGGHSDNEKDQLKVAIKELKEETGVKNPTPLLDKAFALDVLTVNGHIKRGKYVSSHLHLNLTYLIECSEDETLMLKEDENSGVMWIPFNEISKYCSEPHMIPIYEKLINKLKTQSKEGHHHHHH | soluble
LRARTYGEGGFRVERVLEERPAFTRVQFSYLSDGLRVHGFANLPKGRGPFPVVVVLHGYVEPSRYRLLAYTTPYADFLAERGYLVLHPNFRGHPPSEGAPAQGLRHVYAVDVLNLLAEVRRGAFPQADPARIALFGHSMGGGVAQIVSLVDPGLKGAVLYGSMSGDERRNLERIRYWSGGSRGQELFALSPEVLRQASAWTYLAELSVPYSVHHGTQDAQVPPEWSWELCRRLKALKKPVECFSYPGGHLFRGEVDRVFRERVLAFLGRVL | soluble
MGSDKIHHHHHHMALIEVQNLKKYFPVKQGPIDVLLRKPRKFVKAVDGVNFQIDEGKSLGLVGESGSGKTTTGRVILRLEEPTDGKIIFDGRDITKLSKEEMRKLRKEMQIIFQDPMASLNPYMRVGKAIEHALEIHGIGDRSSRKEMVLEMLRRVNLEPAEDIYRRYPRELSGGQRQRVVIARALILKPRLVVADEAVAMLDVSVRSQLLRLLQELRKEFNLTMLFITHDLATTKYVCDEIAVMYLGKIVEIGDFEDIYLNPKHPYTQALISAVPEPSLKKKKKFIPEGETPNPIDVPSGCRFHPRCPYRMDICMKEEPQLKAVEENHKVACHLYN | not soluble
MGSDKIHHHHHHVYTSFYGFKAKPFQLSPDPSFFFGSKGHNRAMAYLEYGLAQAEGFIVVTGEVGAGKTTLVRNLFRQLEPEKIVAAQIVNTSLDSDDTLRMVAAAFGLPLAQGNPGKTPVLVALEKFFRQCEQQGKRALLVVDEAQNLSPQTVEELRMLSNFQGDNKSLLQTFLLGQPEFRKTLLGNDMQQLRQRITATYHLGPMDRAETKSYIEHRLKTVGWGGNPGFDEEAFDAIHQYTGGIPRRINALCDRLLLMGYLEKLQHFGVSEVNEVIRDIQQEFDAVEVEAGLLSGDKTSPLKEEQFAIGLEEMSNRIAKLEETVVSLMGLLKQILSLADVNKRLR | not soluble
MHIDLRQLRHFIALHEHRSFVAAALAVNLSQSAFSRSIQALEHSAGCRLVDRAAKDLRPTKQGLIVLEHARRLVSGAHNLANEIALFNGLEAGELRFGAGPAPATWLVPRAVGRFNVRYPKARVSFQVEHWQALNRRLQAEEFEFFVADTRHFEADPQYRTSRLRPRRWHFCCREGHPLAARESVSAEELLSFPLATNISPPNIRKVLVDLSGRPDFRPAIECENGHSLLGVVLASDAIGISSGLGDLAPPGQGGLRPLRVRELPDDLDELHTRYGIVSRAGYSLSPLAEAMIDELKRVDDAT | not soluble
MGHHHHHHSHMNILFLQWKVKLPPQKEVITSDELMAHLGNCLLSIKPQEKSEGLQLNFQQNVDDAMTVLPKLATGLDVNVRFTGVSDFEYTPECSVFDLLGIPLYHGWLVDPQSPEAVRAVGKLSYNQLVERIITCKHSSDTNLVTEGLIAEQFPETTAAQLTYHGLCELTAAAKEGELSVFFRNNHFSTMTKHKSHLYLLVTDQGFLQEEQVVWESLHNVDGDSCFCDSDFHLRHSLGKGPGAEGGSGSPEKQLQVDQDYLIALSLQQQQPRGPLGLTDLELAQQLQQEEYQQQQAAQPVRMRTRVLSLQGRGATSGRPAGERRQRPKHESDCILL | not soluble
VRRGQLIDAAREITAQHGVAALTIRGVAEAAGVSLGVVHYHFEDKEELLTEMGQSLILEVSEAMRMAFSQLVGPLKKRGVPGLRELLCAGIRGLWPIIEATPDQQLLTYEITAQALRQRGAGNDSAGLVAARQYRTMDTEAVAFLNLCAHRAGVTWGTPVDQVARFALAVLDGAVLRWLVDRDSDAARTAFDDLVQIIAAKALEGEGSW | not soluble
MAHHHHHHMAHVLQKCAHVLGISLSATGVYYAKGKMPYPATSSNEGTSSAESMGGSPGKAAKSNTVSAVKESQAATRKSKAQGNSVATAAVHTPSPPSSTEMNATNLDATSPCSSAAGPVGFFFDVGLHDLPNPPRDFDVTPSALAVDGTHSSANGAVIAVRDFVSHIPPFFVPVTEVVANMPGYTAEHLEVYLNVNSLELVTVAGERYVRLYGSFGDLSLSGSEVSEKRYAHYRPDVALVAAFEAAFEGIYDKWMPLPELLRRVGPDVTAQLPYQGPAAITYFAQMQHRFAFAVREVPTTGGGAAGALSSPQFTTEAAVLLRKPGYSGLEAHSTPTPKSFQALMSLVPGDTQVDIDVVRCQLTSEVRAELSRYYDGLEGFFAAHKPVFFVPPETPTVVMRMRYRLRTQRAKLPLEEQLRIATDARDKARIRSLRRKIAFRDDPSHPLHDPENLAKEVSKHLPRRGFVHLRIFLKRNVPEELLMYMPKRMRCFFNNYPQYFTQFEYQSAGTWCLCRPDQPLPRGVIRQNFSDGDLLRLIAEFLQQRGARAASMVHTNLPFGAQEVIRRRYGGVYFFVTRYPQYFNVVLKTDRQNVKSSAVVHLIQVPSQELSDATMAASAASLNNPNAPSHDDDDHESGDDDDDEDLDDGLD | not soluble
KGDDNYYIIFTSGTTGQPKGVQISHDNLLSFTNWMIEDAAFDVPKQPQMLAQPPYSFDLSVMYWAPTLALGGTLFALPKELVADFKQLFTTIAQLPVGIWTSTPSFADMAMLSDDFCQAKMPALTHFYFDGEELTVSTARKLFERFPSAKIINAYGPTEATVALSAIEITREMVDNYT | not soluble
SSFVGENSGVKMGSEDWEKDEPQCCLEDPAVSPLEPGPSLPAMNFVHTSPKVKNLNPKKFSIHDQDHKVLVLDSGNLIAVPDKNYIRPEIFFALASSLSSASAEKGSPILLGVSKGEFCLYCDKDKGQSHPSLQLKKEKLMKLAAQKESARRPFIFYRAQVGSWNMLESAAHPGWFICTSCNCNEPVGVTDKFENRKHIEFSFQPVCKAEMSPSEVSD | soluble
MVETPPAWVLLKRARERIYTLPPDFPGFRARLGLCLDGVWYVGAVEAEGFAPKTLGLFGEAGAIAEKELGSLLGHRRPAPFEEGEGRYPMRLFAEGPLGTGIALEDPFRSRIWVKEGRLALIERHLPEGSFRIHLETWREVGERLLPHRFLLVHRDPRGHLLKVERFRDEYAQVGPYWLPVEREVVVEGEGLGVLVLRLEEVEVKG | soluble
MVEADPRFQEAIRLFNAQEWYAAHDVLEEIWHETADPERRCLQGLLQVAVAQLHLQRDNQRGATILFGEALGRLRRPGTPDLGLDLPALCHCVQGRLVQLQQDGDPESCTVPVLSPSP | not soluble
